Experimental data published in article PMC13235457 (2026).
Non-standard residues stand in square brackets, D forms with d. No end group written: not given here. pY = N[C@@H](Cc1ccc(OP(=O)(O)O)cc1)C(=O)O

Key:
[1] = target: Syk tandem SH2 (tSH2) domain; assay: FP; 5 mM KCl, 145 mM NaCl
[2] = target: Syk tandem SH2 (tSH2) domain; assay: FP; 50 mM KCl, 100 mM NaCl
[3] = target: Syk tandem SH2 (tSH2) domain; assay: FP; 20 mM KCl, 130 mM NaCl
[4] = target: Syk tandem SH2 (tSH2) domain; assay: FP; 0 mM KCl, 150 mM NaCl
[5] = target: Syk tandem SH2 (tSH2) domain; assay: intrinsic Trp fluorescence; 5 mM KCl, 145 mM NaCl
[6] = target: Syk tandem SH2 (tSH2) domain; assay: intrinsic Trp fluorescence; 20 mM KCl, 130 mM NaCl
[7] = target: Syk tandem SH2 (tSH2) domain; assay: intrinsic Trp fluorescence; 0 mM KCl, 150 mM NaCl
[8] = target: Syk tandem SH2 (tSH2) domain; assay: intrinsic Trp fluorescence; 50 mM KCl, 100 mM NaCl

| Kd [1] [nM] | Kd [2] [nM] | Kd [3] [nM] | Kd [4] [nM] | Kd [5] [nM] | Kd [6] [nM] | Kd [7] [nM] | Kd [8] [nM] | Binder |
| --- | --- | --- | --- | --- | --- | --- | --- | --- |
| 85.5 | 84.9 | 81.1 | 85.5 | – | – | – | – | NQL[pY]NELNLGRREE[pY]DVLD (also: AlexaFluor 488 label, position not given here) [ITAM-ζ1-Y2P peptide labeled with AlexaFluor488] |
| – | – | – | – | 86 | 84.3 | 97.5 | 82.7 | NQL[pY]NELNLGRREE[pY]DVLD [ITAM-ζ1-Y2P peptide (doubly phosphorylated first ITAM of the CD3-ζ chain)] |
